Test results from the DeepSol protein solubility set.

experiment: soluble on expression in E. coli; label from the status in PepcDB or PDB records

| Sequence | soluble on expression in E. coli |
| --- | --- |
| MSLQNRIMITGAGSGLGREMALRWAREGWRLALSDINDAGLQETLALVREAGGDGFVQRCDVRDYSQLTAFAQTCEERFGGMDIIVNNAGVASGGFFNELSLEDWDWQIAINLMGVVKGCKAFLPMLQASKGKIINIASMAALMQAPAMSNYNVAKAGVVALSESLLVELRDQDVGVHVVCPSFFQTNLLDSFRGPTPAMKAQIGRLLEKSPITATDIADYIFTQVAEGEFMILPHEEGRLAWDMKRQQPQAMYDEMTVMCAKMRAKAQKGEGHHHHHH | soluble |
| MGSDKIHHHHHHMVEPSKVVGLISDFGDSPYTGIMRAVIKSISRELQIIDIDHSIPSFSPLAGAYVVAHTYQWLPKGSVIVAVVDPGVGTSRYALAVETENYVFIGPDNGVLYPAAASDGIKRVYALREKDVNSLARMKTSSTAGTVKPWSISRTFHGRDVFAPAGALIAAGHASLEELGDEIEPERMKRASIDHVEKLGPSTFRATVVYIDKFGNVALSIRPKKLGINLSLYKSVVLGTHTTSNTIRMGKTFGDANPGELVAYENSFGHLEIAVNRGNAAKKLGLELEARVEIELLENSGPAPNGSRGVRNADLLGVSSRSLGETIW | not soluble |
| MGSDKIHHHHHHMVKTVNWRDLLEPQTKIRDPLYGYIWVTDDELQIIDTPIFQRLRRVNQLALTKYVYPTAEHSRFVHSLGAMHCATQIFTGILNNTHSYHGIRAIDSANMLRRLRYAALLHDIGHIAFSHAAEKLILNPLQHEHLGQFIIANYSPISSILGEHIKPVISILADSVTQDNRLLHQIISGHLDADRADYLMRDSHACGVKYGEYDFERYMQAFGAINESNELKLFVHERDIFVIESFLVARHHYNMQVPYHRTRMGYDIILGRFLKEFLPKCDDAKLGLTVEEGAYTKVDLQKFEFFDDYSVFNHIKHEARTGNLWANMLLRQGHLCPVYDTTDSVDRGGKVFKKIIRRLKAKNFVEDDDFFQCRKEITASKLISTDEKENSLADTSRETIYVRTKSGKLVDIVKHSNIVRALRPVTIYRIYTSQKRKSEAEAVIADVCRKTQVDRRG | not soluble |
| ANFNVPKLGVFPVAAVFDIDNVPEDSSATGSRWLPSIYQGGNYWGGGPQALHAQVSNFDSSNRLPYNPRTENNPAGNCAFAFNPFGQYISNISSAQSVHRRIYGIDLNDEPLFSPNAASITNGGNPTMSQDTGYHNIGPINTAYKAEIFRPVNPLPMSDTAPDPETLEPGQTEPLIKSDGVYSNSGIASFIFDRPVTEPNPNWPPLPPPVIPIIYPTPALGIGAAAAYGFGYQVTVYRWEEIPVEFIADPETCPAQPTTDKVIIRTTDLNPEGSPCAYEAGIILVRQTSNPMNAVAGRLVPYVEDIAVDIFLTGKFFTLNPPLRITNNYFADDEVKENTVTIGNYTTTLSSAYYAVYKTDGYGGATCFIASGGAGISALVQLQDNSVLDVLYYSLPLSLGGSKAAIDEWVANNCGLFPMSGGLDKTTLLEIPRRQLEAINPQDGPGQYDLFILDDSGAYASFSSFIGYPEAAYYVAGAATFMDVENPDEIIFILRNGAGWYACEIGDALKIADDEFDSVDYFAYRGGVMFIGSARYTEGGDPLPIKYRAIIPGLP | soluble |
| MRFVMPGDRIGSAEEYVKGEGVYEEGGELFAAVAGKLIIKDRVAKVESISPIPEIVKGDVVLGRVVDLRNSIALIEVSSKKGENRGPSNRGIGILHVSNVDEGYVKEISEAVGYLDILKARVIGDNLRLSTKEEEMGVLRALCSNCKTEMVREGDILKCPECGRVEKRKISTDYGKGEW | soluble |
| MYKLNLDIQAFLANDWQQAPKVFKGAFPDFEDPIAADELAGLACEEEVSSRVVVTKGNDWEVISGPFEDYDRFGETHWQLLVQAVNHWYPESQPLVEAFRFLPDWRFDDLMVSFATPQGGVGPHIDNYDVFIIQGEGQRRWTVGPKGNYQRRGGVTTSPLIEDFEPIIDVVLEKGDVLYIPPGFPHQGETLTLALSYSMGYRAPSQQELAGQIADQLMDEDKGHKRFIAVDGAASHGTVSLAEQQGIMQLIRDLCNDTDNVVKVLGKLLSQNRFDLDIQEDESIDADALVEALNEGAVLMRIGGLKVLKMEGDSQARLFVAGESVIIEGASEEELIEVSNSVNVNAELAQLPHWQGFFVQMLQKGYFYLGED | soluble |
| MSLTNHEQVLTDYLAAFIEELVQAGVKEAIISPGSRSTPLALMMAEHPILKIYVDVDERSAGFFALGLAKASKRPVVLLCTSGTAAANYFPAVAEANLSQIPLIVLTADRPHELRNVGAPQAMDQLHLYGSHVKDFTDMALPENSEEMLRYAKWHGSRAVDIAMKTPRGPVHLNFPLREPLVPILEPSPFTATGKKHHHVHIYYTHEVLDDSSIQKMVTECTGKKGVFVVGPIDKKELEQPMVDLAKKLGWPILADPLSGLRSYGALDEVVIDQYDAFLKEAEIIDKLTPEVVIRFGSMPVSKPLKNWLEQLSDIRFYVVDPGAAWKDPIKAVTDMIHCDERFLLDIMQQNMPDDAKDAAWLNGWTSYNKVAREIVLAEMANTTILEEGKIVAELRRLLPDKAGLFIGNSMPIRDVDTYFSQIDKKIKMLANRGANGIDGVVSSALGASVVFQPMFLLIGDLSFYHDMNGLLMAKKYKMNLTIVIVNNDGGGIFSFLPQANEPKYFESLFGTSTELDFRFAAAFYDADYHEAKSVDELEEAIDKASYHKGLDIIEVKTNRHENKANHQALWVKIADALKALDEGHHHHHH | soluble |
| MAHHHHHHMRSGPCPLPPAVAARSLLSPFGIGVSKRLALVGSGNSITALLVKENVPAGTPLLLAPDAALLTCQGALDADVDGLVPPPAEMLELLKRDTAQLDHVYLAYYLSLRCFTNTEDWFSSQIHRFKDSGSASQEDTASSRIWERFAQKYVTAPAPVFMAALQYVWESCFRKPATEADSASAPLPAALAVAPVVDVASQSRNATNSALTATTAKALKETHLHSDITGARQALLAKNDAYVYWVLTAITDIPVGGEVSVSSESVL | soluble |
| MTTPPPRMLPSGDTAITVEFGRDISDESNRRVLALDRKLKQAPIAGILETVPTYRSLLVHYDPETIGFGALSDQLTALAHTSDESETVAKRRWRIPVCYGGEHGIDLEDAAQALNITPDALVARHAAGDYRVAMIGFTPGWSYLSGLDPALAMPRRQAPRLHTPAGTISVGGIQTGIQCLAGPSGWHLLGRTPVRTYQLHREPIFLLEPGDAISFAQIDAKEFAERDDAASHGEVVAELLSALEHHHHHH | soluble |
| MSLLNIIRLLAESLPRISDGNENTDVWVNDMKFKMAYSFLNDDIDVIERELEQTVRSDYPLLSEAGLHLLQAGGKRIRPVFVLLSGMFGDYDINKIKYVAVTLEMIHMASLVHDDVIDDAELRRGKPTIKAKWDNRIAMYTGDYMLAGSLEMMTRINEPKAHRILSQTIVEVCLGEIEQIKDKYNMEQNLRTYLRRIKRKTALLIAVSCQLGAIASGADEKIHKALYWFGYYVGMSYQIIDDILDFTSTEEELGKPVGGDLLQGNVTLPVLYALKNPALKNQLKLINSETTQEQLEPIIEEIKKTDAIEASMAVSEMYLQKAFQKLNTLPRGRARSSLAAIAKYIGKRKFEGHHHHHH | not soluble |
| SDRRTRENPERTFDLVLKVKCHASENEDPEVLWKFPEDFGDQEVLQSVPKFCFPFDVERVSQNQVGQHFTFVLTDMESKQRFGFCRLTSGGRICLCILSYLPWFEVYYKLLNTLADYLAKELEEDLNETLKSLYNHPVPKANTPVNLSVNQELFIASEQVLKDDPSLIPHSCFITPDITGLPTIPESRNLTEYFVAVDVNNMLRLYASMLHERRIIITSSKLSTVSPSHLRL | soluble |
| MGSDKIHHHHHHLKSAEGSTWNCCPIDWRAFQSNCYFPLTDNKTWAESERNCSGMGAHLMTISTEAEQNFIIQFLDRRLSYFLGLRDENAKGQWRWVDQTPFNPRRVFWHKNEPDNSQGENCVVLVYNQDKWAWNDVPCNFEASRICKIPGTTLN | not soluble |
| FYDPLVFPSDEFDASISQVNEKINQSLAFIRKSDELLHNVNAG | soluble |
| MSLSFKNNLKLLLSTQNVLIYILNSEEERLEYKIHLMIRQNIKKTIYCWNFIDGYYNNPNYLNKAIRNPLQAIEFIEQLNFPTSTIFFLKDFHVFINDISVIRKIKNLSRFLKQANSSIIISASEMQVPSLLKDFITVLEFPLPNYEEINLELHRLFKIMNVDSSIYSEYFHDLTLAYRGFSIEKIRISIAKLLTSNLSSTHLIKNILYEKRQLIEQTDEGHHHHHH | not soluble |
